Laboratory results: paper PMC12511343, “Structural insights into Cir-mediated killing by the antimicrobial protein Microcin V” (Communications Biology, 2025)

B1: 4-Met substituted E. coli Cir (colicin Ia receptor), the paper's wildtype (WT) Cir [E. coli] / Microcin V (MccV), mature, wildtype [modified: biotinylated (EZ-Link Sulfo-NHS-LC kit) for BLI and ELISA; not labelled for cryo-EM … (parent)
chain 1: VDDDGETMVVTASSVEQNLKDAPASISVITQEDLQRKPVQNLKDVLKEVPGVQLTNEGDNRKGVSIRGLDSSYTLILVDGKRVNSRNAVFRHNDFDLNWIPVDSIERIEVVRGPMSSLYGSDALGGVVNIITKKIGQKWSGTVTVDTTIQEHRDRGDTYNGQFFTSGPLIDGVLGMKAYGSLAKREKDDPQNSTTTDTGETPRIEGFSSRDGNVEFAWTPNQNHDFTAGYGFDRQDRDSDSLDKNRLERQNYSVSHNGRWDYGTSELKYYGEKVENKNPGNSSPITSESNTVDGKYTLPLTAINQFLTVGGEMRHDKMSDAVNLTGGTSSKTSASQYALFVEDEWRIFEPLALTTGVRMDDHETYGEHWSPRAYLVYNATDTVTVKGGWATAFKAPSLLQLSPDWTSNSCRGACKIVGSPDLKPETSESWELGLYYMGEEGWLEGVESSVTVFRNDVKDRISISRTSDVNAAPGYQNFVGFETGANGRRIPVFSYYNVNKARIQGVETELKIPFNDEWKLSINYTYNDGRDVSNGENKPLSDLPFHTANGTLDWKPLALEDWSMYMSGHYTGQKRADSATAKTPGGYTIWNTGAAWQVTKDVKLRAGVLNLGDKDLSRDDYSYNEDGRRYFMAVDYRF
chain 2: ASGRDIAMAIGTLSGQFVAGGIGAAAGGVAGGAIYDYASTHKPNPAMSPSGLGGTIKQKPEGIPSEAWNYAAGRLCNWSPNNLSDVCL

Variants of: B1
Experiment: BLI
Details: for Kd: 100 nM biotinylated MccV loaded onto streptavidin-coated sensors, probed with dilutions of Cir, PBS-T; for response: raw shift at end of association (600 s), 100 nM biotinylated MccV on sensor, not baseline-subtracted, read off a plot
[1] = with 4-Met substituted E. coli Cir (colicin Ia receptor)

| Variant | Kd (with Microcin V (MccV)) [µM] | response (with Microcin V (MccV), 5 µM Cir, PBST trace at about 1.5 nm) [nm] | Kd [1] [µM] | response (with 4-Met substituted E. coli Cir (colicin Ia receptor), 5 µM WT Cir, PBST trace at about 1.65 nm) [nm] | response (with 4-Met substituted E. coli Cir (colicin Ia receptor), 5 µM WT Cir, PBST trace at about 1.85 nm) [nm] |
| --- | --- | --- | --- | --- | --- |
| chain 1 C410A | 0.552 | 4.5 |  |  |  |
| chain 2 ASGRDIAMAIGTLSGQFVAGGIGAAAGGVAGGAIYDYASTHKPNPAMSPSGLGGTIKQKPEGIPSEAWNYAAGRLCNWSPNNLSAVCL [chain 2 D85A] |  |  | 0.888 | 3.3 |  |
| chain 2 ASGRDIAMAIGTLSGQFVAGGIGAAAGGVAGGAIYDYASTHKPNPAMSPSGLGGTIKQKPEGIPSEAWNYAAGRLCNWSPNNLSRVCL [chain 2 D85R] |  |  | 0.692 |  | 3.2 |
| chain 1 R411E R465E | 1.58 |  |  |  |  |
